The values below come from US20130330342A1 (CENTRE NATIONAL DE LA RECHERCHE SCIENTIFIQUE CNRS, published 2013).

The target in the experiment is T1, CD8-Stop (UniProt P01732 22-203, limits assumed).
T1 construct: domain: CD8 receptor devoid of cytoplasmic domain; Control expressed in HeLa or 293T cells; also called CD8 protein devoid of cytoplasmic domain; control CD8-Stop protein
Put plainly: co-immunoprecipitation from 293T cells (anti-CD8 IP, anti-c-myc blot). The protocol: The direct recognition of Nef by sdAb Nef19 was explored at the cell level by means of coimmuno-precipitation experiments. […] These constructs have been previously described (Janvier et al., 2003a,b; Madrid et al., 2005). The same type of experiment was also carried out on cells coexpressing the sdAb and the CD8 protein devoid of cytoplasmic domain (CD8-Stop) used as a control. 24 h after transfection, the cells were lyzed in a buffer containing 100 mM of (NH₄)₂SO₄, 20 mM of Tris (pH 7.5), 10% of glycerol, 1% of IGEPAL and a cocktail of protease inhibitors (Roche). The cell lyzate (600 μg of total proteins) was incubated for 1 h at 4° C. with 3 μg of the anti-CD8 Ab (32M4, Santa Cruz) and 30 μl of beads coated with protein A-sepharose. The immunoprecipitates were then analyzed by immunoblotting using an anti-CD8 Ab (H160, Santa Cruz) and an anti-c-myc Ab (9E10).

T1 sequence (P01732 22-203 limits assumed): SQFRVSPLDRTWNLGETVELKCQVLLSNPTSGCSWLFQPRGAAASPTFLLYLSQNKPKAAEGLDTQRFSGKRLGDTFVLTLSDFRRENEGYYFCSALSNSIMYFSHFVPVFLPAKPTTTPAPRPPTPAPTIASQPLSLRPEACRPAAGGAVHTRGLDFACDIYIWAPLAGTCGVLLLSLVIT

B1: sdAb Nef19 (VHH)
VHH: EVQLVESGGGLVQPGGSLKLSCAASGSIFRANAMRWYRQAPGKQREWVASVISDDFTDYVDSVRGRFTISKDNAQNTVYLQMNSLKPEDTAVYYCNAQLGGVNYWGQGTQVTVSS
notes: Llama VHH from the immune library; The soluble form carries C-terminal c-myc and 6His tags and is detected with mAb 9E10; also called sdAb Nef19P; sdAb Nef19C
As to B1, the binding result is on record as “no binding”.
